The test concerns the target mouse TR3 (mouse) (UniProt Q925D8). In words: flow cytometry on ConA-activated murine CD8+ T-cells, control stain. For orientation: In flow cytometry, cells or beads pass a laser one at a time.
Chain of UniProt Q925D8 (Q925D8 whole entry): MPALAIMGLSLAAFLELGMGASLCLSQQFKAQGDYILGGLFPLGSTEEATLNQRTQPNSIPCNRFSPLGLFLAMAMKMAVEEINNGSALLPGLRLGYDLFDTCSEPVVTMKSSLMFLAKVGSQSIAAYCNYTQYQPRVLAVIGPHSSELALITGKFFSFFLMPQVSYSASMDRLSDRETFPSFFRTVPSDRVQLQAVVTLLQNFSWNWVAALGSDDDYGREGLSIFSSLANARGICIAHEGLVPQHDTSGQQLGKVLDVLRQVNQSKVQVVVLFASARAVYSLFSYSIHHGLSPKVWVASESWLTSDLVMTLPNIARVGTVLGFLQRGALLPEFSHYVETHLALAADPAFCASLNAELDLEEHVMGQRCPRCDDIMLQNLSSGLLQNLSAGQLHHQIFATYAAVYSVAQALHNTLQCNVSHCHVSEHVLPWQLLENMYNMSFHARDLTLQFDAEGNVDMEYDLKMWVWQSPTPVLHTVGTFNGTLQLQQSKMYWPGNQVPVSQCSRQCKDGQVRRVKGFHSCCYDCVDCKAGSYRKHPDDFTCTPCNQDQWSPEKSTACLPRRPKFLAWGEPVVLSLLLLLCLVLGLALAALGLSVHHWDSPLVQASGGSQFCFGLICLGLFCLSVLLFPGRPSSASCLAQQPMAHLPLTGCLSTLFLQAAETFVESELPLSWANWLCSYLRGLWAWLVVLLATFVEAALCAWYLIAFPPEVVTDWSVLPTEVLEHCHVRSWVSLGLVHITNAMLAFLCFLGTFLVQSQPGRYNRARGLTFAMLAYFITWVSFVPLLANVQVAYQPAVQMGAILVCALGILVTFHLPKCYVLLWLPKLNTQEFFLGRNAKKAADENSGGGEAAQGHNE

In turn, “normal (non-immune) rat serum (antibody)” came in with a percent of cells within the marker-1 (M1, unstained) region of 99%.
